Test results published in patent US20260102505A1, “ANTI-CD45-IGN ANTIBODY DRUG CONJUGATES AND USES THEREOF” (Vor Biopharma Inc., priority 2022, published 2026).

Columns and labels:
[1] = molecular target: CD45 of non-human primate (NHP), on cells in vivo (non-human primate (NHP); not stated further); test: in vivo receptor occupancy in NHP at the minimum efficacious dose of 0.15 mg/kg
[2] = molecular target: CD45 of non-human primate (NHP), on cells in vivo (non-human primate (NHP); not stated further); test: in vivo receptor occupancy on T cells at 24 h after a single dose of 0.60 mg/kg in NHP, n=3
[3] = molecular target: CD45 of non-human primate (NHP), on cells in vivo (non-human primate (NHP); not stated further); test: in vivo receptor occupancy on T cells at 24 h after a single dose of 0.20 mg/kg in NHP, n=3; footnote: * % RO measured after ADC clearance
[4] = molecular target: CD45 of non-human primate (NHP), on cells in vivo (non-human primate (NHP); not stated further); test: in vivo receptor occupancy on T cells at 24 h after a single dose of 0.30 mg/kg in NHP, n=6
[5] = molecular target: CD45 of non-human primate (NHP), on cells in vivo (non-human primate (NHP); not stated further); test: in vivo receptor occupancy on T cells at 24 h after a single dose of 0.05 mg/kg in NHP, n=3; footnote: * % RO measured after ADC clearance
[6] = molecular target: CD45 of non-human primate (NHP), on cells in vivo (non-human primate (NHP); not stated further); test: in vivo receptor occupancy on T cells at 24 h after a single dose of 0.10 mg/kg in NHP, n=6; footnote: * % RO measured after ADC clearance

receptor occupancy (RO) [1]: 5%
% Receptor Occupancy (T-cells @ 24h) [2]: 100%
% Receptor Occupancy (T-cells @ 24h) [3]: 6%
% Receptor Occupancy (T-cells @ 24h) [4]: 46%
% Receptor Occupancy (T-cells @ 24h) [5]: 2%
% Receptor Occupancy (T-cells @ 24h) [6]: 4%
B1: anti-CD45 ADC comprising anti-CD45 Ab5 conjugated to DGN-549 via cysteines at amino acid 265 (EU numbering by Kabat) in the Fc region, protease-cleavable linker (antibody, human IgG1, kappa, L234A L235A, V domains shown)
VH: EVQLVESGGGLVQPGGSLRLSCAASGFTFEAYSMNWVRQAPGKGLEWVSYISLSGATIHYADSVKGRFTISRDNAKNSLYLQMNSLRAEDTAVYYCARGGQYYYTSSDYGEVAFDIWGQGTMVTVSS
VL: DIVMTQSPLSLPVTPGEPASISCRSSQSLVSSGYNYLDWYLQKPGQSPQLLIYFGSSRASGVPDRFSGSGSGTDFTLKISRVEAEDVGVYYCMQRRRTPWSFGGGTKVEIKR
modifications: DGN549 (IGN pseudo dimer) via a protease-cleavable linker on the engineered Cys at position 265 (EU numbering; D265C)
